Measured values from US20260167721A1 (ABLEXIS, published 2026).

Legend:
[1] = biological target: T1, human CD3 (TCR/CD3 complex on the cell surface) (human, UniProt P07766 23-207; P04234 22-171; P09693 23-182); test: flow cytometry, Jurkat WT gMFI over Jurkat KO gMFI, 1 ug/mL
T1 construct: whole, on cells; Native CD3 on human Pan-T cells or Jurkat wild-type cells; also called CD3 on Pan-T cells; CD3 on Jurkat WT cells

[2] = biological target: T1, human CD3 (TCR/CD3 complex on the cell …); test: flow cytometry, Pan-T cells, 1 ug/mL
[3] = biological target: T1, human CD3 (TCR/CD3 complex on the cell …); test: flow cytometry, Jurkat WT gMFI over Jurkat KO gMFI, 10 ug/mL
[4] = biological target: T1, human CD3 (TCR/CD3 complex on the cell …); test: flow cytometry, Pan-T cells, 10 ug/mL
[5] = biological target: T1, human CD3 (TCR/CD3 complex on the cell …); test: flow cytometry, Jurkat WT cells, 1 ug/mL
[6] = biological target: T1, human CD3 (TCR/CD3 complex on the cell …); test: flow cytometry, Jurkat WT cells, 10 ug/mL

T1 sequence (P07766 23-207, chain 1 of 3): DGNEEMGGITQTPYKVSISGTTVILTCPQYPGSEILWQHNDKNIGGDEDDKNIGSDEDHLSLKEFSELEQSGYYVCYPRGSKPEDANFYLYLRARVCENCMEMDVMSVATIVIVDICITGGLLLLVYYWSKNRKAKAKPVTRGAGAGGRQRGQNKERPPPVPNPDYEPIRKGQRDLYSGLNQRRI
T1 sequence (P04234 22-171, chain 2 of 3): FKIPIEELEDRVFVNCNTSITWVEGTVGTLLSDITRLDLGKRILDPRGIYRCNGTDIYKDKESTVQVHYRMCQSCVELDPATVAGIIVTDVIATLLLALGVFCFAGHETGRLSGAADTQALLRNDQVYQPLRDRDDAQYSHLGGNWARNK
T1 sequence (P09693 23-182, chain 3 of 3): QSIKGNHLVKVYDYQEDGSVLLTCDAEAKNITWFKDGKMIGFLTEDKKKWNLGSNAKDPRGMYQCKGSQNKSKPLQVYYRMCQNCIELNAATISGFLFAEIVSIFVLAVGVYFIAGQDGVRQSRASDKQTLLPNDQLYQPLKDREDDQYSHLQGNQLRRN

Binder	Jurkat WT/KO (Fold) [1] [fold]	% Positive [2] [%]	gMFI [2] [gMFI]	Jurkat WT/KO (Fold) [3] [fold]	% Positive [4] [%]	gMFI [4] [gMFI]	gMFI [5] [gMFI]	gMFI [6] [gMFI]
CD3 × CD33-BspAb123 (bispecific antibody) chain 1: QTVVTQEPSFSVSPGGTVTLTCGLNSGSVSTSYYPSWYQQTPGQTPRTLIYSTNTRSSGVPDRFSGSILGNKAALTITGAQADDESDYYCVLYMGSGIWVFGCGTKLTVLGGGGSGGGGSGGGGSGGGGSQVQLVQSGAEVKKPGASLKVSCKASGYTFTSYYMHWVRQAPGQCLEWMGIINPSNGNTISAQKFQGRVTMTRDTSTSTVYMEMSSLRSEDTAVYYCVRSWGYYVMDVWGQGTTVTVSSDKTHTCPPCPAPEFEGGPSVFLFPPKPKDTLMISRTPEVTCVVVDVSHEDPEVKFNWYVDGVEVHNAKTKPREEQYNSTYRVVSVLTVLHQDWLNGKEYKCKVSNKALPASIEKTISKAKGQPREPQVYTLPPCREEMTKNQVSLWCLVKGFYPSDIAVEWESNGQPENNYKTTPPVLDSDGSFFLYSKLTVDKSRWQQGNVFSCSVMHEALHNHYTQKSLSLSPGK chain 2: EVQLVQSGAEVKKPGSSVKVSCKASGYTITDSNIHWVRQAPGQSLEWIGYIYPYNGGTDYNQKFKNRATLTVDNPTNTAYMELSSLRSEDTAFYYCVNGNPWLAYWGQGTLVTVSSASTKGPSVFPLAPSSKSTSGGTAALGCLVKDYFPEPVTVSWNSGALTSGVHTFPAVLQSSGLYSLSSVVTVPSSSLGTQTYICNVNHKPSNTKVDKRVEPKSCDKTHTCPPCPAPEFEGGPSVFLFPPKPKDTLMISRTPEVTCVVVDVSHEDPEVKFNWYVDGVEVHNAKTKPREEQYNSTYRVVSVLTVLHQDWLNGKEYKCKVSNKALPASIEKTISKAKGQPREPQVCTLPPSREEMTKNQVSLSCAVKGFYPSDIAVEWESNGQPENNYKTTPPVLDSDGSFFLVSKLTVDKSRWQQGNVFSCSVMHEALHNRFTQKSLSLSPGK chain 3: DIQLTQSPSTLSASVGDRVTITCRASESLDNYGIRFLTWFQQKPGKAPKLLMYAASNQGSGVPSRFSGSGSGTEFTLTISSLQPDDFATYYCQQTKEVPWSFGQGTKVEVKRTVAAPSVFIFPPSDEQLKSGTASVVCLLNNFYPREAKVQWKVDNALQSGNSQESVTEQDSKDSTYSLSSTLTLSKADYEKHKVYACEVTHQGLSSPVTKSFNRGEC	0.9	1.8	1860	0.8	1.4	1920	1680	1710
CD3 × CD33-BspAb124 (bispecific antibody) chain 1: not shown chain 2: EVQLVQSGAEVKKPGSSVKVSCKASGYTITDSNIHWVRQAPGQSLEWIGYIYPYNGGTDYNQKFKNRATLTVDNPTNTAYMELSSLRSEDTAFYYCVNGNPWLAYWGQGTLVTVSSASTKGPSVFPLAPSSKSTSGGTAALGCLVKDYFPEPVTVSWNSGALTSGVHTFPAVLQSSGLYSLSSVVTVPSSSLGTQTYICNVNHKPSNTKVDKRVEPKSCDKTHTCPPCPAPEFEGGPSVFLFPPKPKDTLMISRTPEVTCVVVDVSHEDPEVKFNWYVDGVEVHNAKTKPREEQYNSTYRVVSVLTVLHQDWLNGKEYKCKVSNKALPASIEKTISKAKGQPREPQVCTLPPSREEMTKNQVSLSCAVKGFYPSDIAVEWESNGQPENNYKTTPPVLDSDGSFFLVSKLTVDKSRWQQGNVFSCSVMHEALHNRFTQKSLSLSPGK chain 3: DIQLTQSPSTLSASVGDRVTITCRASESLDNYGIRFLTWFQQKPGKAPKLLMYAASNQGSGVPSRFSGSGSGTEFTLTISSLQPDDFATYYCQQTKEVPWSFGQGTKVEVKRTVAAPSVFIFPPSDEQLKSGTASVVCLLNNFYPREAKVQWKVDNALQSGNSQESVTEQDSKDSTYSLSSTLTLSKADYEKHKVYACEVTHQGLSSPVTKSFNRGEC	0.9	1.5	1950	0.9	1	1970	1800	1790
CD3 × CD33-BspAb125 (bispecific antibody) chain 1: not shown chain 2: EVQLVQSGAEVKKPGSSVKVSCKASGYTITDSNIHWVRQAPGQSLEWIGYIYPYNGGTDYNQKFKNRATLTVDNPTNTAYMELSSLRSEDTAFYYCVNGNPWLAYWGQGTLVTVSSASTKGPSVFPLAPSSKSTSGGTAALGCLVKDYFPEPVTVSWNSGALTSGVHTFPAVLQSSGLYSLSSVVTVPSSSLGTQTYICNVNHKPSNTKVDKRVEPKSCDKTHTCPPCPAPEFEGGPSVFLFPPKPKDTLMISRTPEVTCVVVDVSHEDPEVKFNWYVDGVEVHNAKTKPREEQYNSTYRVVSVLTVLHQDWLNGKEYKCKVSNKALPASIEKTISKAKGQPREPQVCTLPPSREEMTKNQVSLSCAVKGFYPSDIAVEWESNGQPENNYKTTPPVLDSDGSFFLVSKLTVDKSRWQQGNVFSCSVMHEALHNRFTQKSLSLSPGK chain 3: DIQLTQSPSTLSASVGDRVTITCRASESLDNYGIRFLTWFQQKPGKAPKLLMYAASNQGSGVPSRFSGSGSGTEFTLTISSLQPDDFATYYCQQTKEVPWSFGQGTKVEVKRTVAAPSVFIFPPSDEQLKSGTASVVCLLNNFYPREAKVQWKVDNALQSGNSQESVTEQDSKDSTYSLSSTLTLSKADYEKHKVYACEVTHQGLSSPVTKSFNRGEC	1.5	42.2	6020	5.3	95.4	28700	3680	13700
CD3 × CD33-BspAb68 (bispecific antibody, KiH heterodimer) scFv-Fc: EVQLVESGGGLVKPGGSLRLSCSASGFTFSTYTMNWVRQAPGKCLEWVSSISKSSSYIYYTDSVKGRFTISRDNAKNSLYLQMNSLRAEDTAVYYCARERRTLAFDIWGQGTMVTVSSGGGGSGGGGSGGGGSGGGGSNFMLTQPHSVSESPGKTVTISCTRSSGSIASNYVQWYQQRPGSSPTTVIYEDNQRSSGVPDRFSGSIDSSSNSASLTISGLKTEDEADYYCQSYDRSNRVFGCGTKLTVLGGGGSDKTHTCPPCPAPEFEGGPSVFLFPPKPKDTLMISRTPEVTCVVVDVSHEDPEVKFNWYVDGVEVHNAKTKPREEQYNSTYRVVSVLTVLHQDWLNGKEYKCKVSNKALPASIEKTISKAKGQPREPQVYTLPPCREEMTKNQVSLWCLVKGFYPSDIAVEWESNGQPENNYKTTPPVLDSDGSFFLYSKLTVDKSRWQQGNVFSCSVMHEALHNHYTQKSLSLSPGK heavy: EVQLVQSGAEVKKPGSSVKVSCKASGYTITDSNIHWVRQAPGQSLEWIGYIYPYNGGTDYNQKFKNRATLTVDNPTNTAYMELSSLRSEDTAFYYCVNGNPWLAYWGQGTLVTVSSASTKGPSVFPLAPSSKSTSGGTAALGCLVKDYFPEPVTVSWNSGALTSGVHTFPAVLQSSGLYSLSSVVTVPSSSLGTQTYICNVNHKPSNTKVDKRVEPKSCDKTHTCPPCPAPEFEGGPSVFLFPPKPKDTLMISRTPEVTCVVVDVSHEDPEVKFNWYVDGVEVHNAKTKPREEQYNSTYRVVSVLTVLHQDWLNGKEYKCKVSNKALPASIEKTISKAKGQPREPQVCTLPPSREEMTKNQVSLSCAVKGFYPSDIAVEWESNGQPENNYKTTPPVLDSDGSFFLVSKLTVDKSRWQQGNVFSCSVMHEALHNRFTQKSLSLSPGK light: DIQLTQSPSTLSASVGDRVTITCRASESLDNYGIRFLTWFQQKPGKAPKLLMYAASNQGSGVPSRFSGSGSGTEFTLTISSLQPDDFATYYCQQTKEVPWSFGQGTKVEVKRTVAAPSVFIFPPSDEQLKSGTASVVCLLNNFYPREAKVQWKVDNALQSGNSQESVTEQDSKDSTYSLSSTLTLSKADYEKHKVYACEVTHQGLSSPVTKSFNRGEC	12.9	100	539000	13.6	99.9	601000	58000	63600
CD3 × CD33-BspAb69 (bispecific antibody) chain 1: EVQLVESGGGLVKPGGSLRLSCAASGFTFSYYSMNWVRQAPGKCLEWVSSISRSTTYIYYADSVKGRFTISRDNAKNSLYLQMNSLRAEDTAVYYCARDGKGAIFLDYWGQGTLVTVSSGGGGSGGGGSGGGGSGGGGSSYELTQPPSVSVSPGQTARITCSGDALPKKYAYWYQQKSGQAPVLVIYEDSKRPSGIPERFSGSSSGTMATLTISGAQVEDEADYYCYSTDSSGNHRVFGCGTKLTVLDKTHTCPPCPAPEFEGGPSVFLFPPKPKDTLMISRTPEVTCVVVDVSHEDPEVKFNWYVDGVEVHNAKTKPREEQYNSTYRVVSVLTVLHQDWLNGKEYKCKVSNKALPASIEKTISKAKGQPREPQVYTLPPCREEMTKNQVSLWCLVKGFYPSDIAVEWESNGQPENNYKTTPPVLDSDGSFFLYSKLTVDKSRWQQGNVFSCSVMHEALHNHYTQKSLSLSPGK chain 2: EVQLVQSGAEVKKPGSSVKVSCKASGYTITDSNIHWVRQAPGQSLEWIGYIYPYNGGTDYNQKFKNRATLTVDNPTNTAYMELSSLRSEDTAFYYCVNGNPWLAYWGQGTLVTVSSASTKGPSVFPLAPSSKSTSGGTAALGCLVKDYFPEPVTVSWNSGALTSGVHTFPAVLQSSGLYSLSSVVTVPSSSLGTQTYICNVNHKPSNTKVDKRVEPKSCDKTHTCPPCPAPEFEGGPSVFLFPPKPKDTLMISRTPEVTCVVVDVSHEDPEVKFNWYVDGVEVHNAKTKPREEQYNSTYRVVSVLTVLHQDWLNGKEYKCKVSNKALPASIEKTISKAKGQPREPQVCTLPPSREEMTKNQVSLSCAVKGFYPSDIAVEWESNGQPENNYKTTPPVLDSDGSFFLVSKLTVDKSRWQQGNVFSCSVMHEALHNRFTQKSLSLSPGK chain 3: DIQLTQSPSTLSASVGDRVTITCRASESLDNYGIRFLTWFQQKPGKAPKLLMYAASNQGSGVPSRFSGSGSGTEFTLTISSLQPDDFATYYCQQTKEVPWSFGQGTKVEVKRTVAAPSVFIFPPSDEQLKSGTASVVCLLNNFYPREAKVQWKVDNALQSGNSQESVTEQDSKDSTYSLSSTLTLSKADYEKHKVYACEVTHQGLSSPVTKSFNRGEC	6.3	99.7	95300	8.7	99.8	281000	16500	25800
